2 molecules from publication PMC6731595, “The anti-parasitic agent suramin and several of its analogues are inhibitors of the DNA binding protein Mcm10” (Open Biology, 2019) can be followed below.

{FAM} = 6-carboxyfluorescein (6FAM) label

For orientation: Kd means a measure of binding affinity in units of concentration.

In one data set the target is T1, human RPA70AB (Homo sapiens, UniProt P27694).
T1 construct: recombinant human RPA70AB (181-422) in a pSV281 vector; 6xHis (TEV site) (N, cleaved yes); made in house; host or cells: Escherichia coli BL21(DE3)
Kind of data set: FP saturation binding of probe to RPA70AB. As to conditions: probe 12.5 nM, mean ± SEM, n = 3, listed as 5′-6FAM DNA probe. The procedure:
(§1) The LOPAC pilot screen identified the sulfhydryl reagent 4-chloromercuribenzoic acid as an inhibitor in the fluorescence polarization (FP) assay. As there was no known Mcm10 inhibitor, 4-chloromercuribenzoic acid (30 μM) was used as a positive control on initial screening plates. Following the discovery of suramin as a Mcm10 inhibitor, suramin (7 μM) was used as a positive control on subsequent screening plates. To confirm activity, screening hits were tested in dose response experiments (8 concentrations in duplicate) using xMcm10-ID. Similar dose response experiments were conducted with suramin and its analogs to confirm activity for hMcm10-ID (1 μM) and xMcm10-FL (2 μM) and to determine selectivity relative to RPA70AB (0.4 μM). […] FP was measured in mP units, and ∆mP values for each well were calculated as the difference between the measured mP and the average of the “probe only” controls. […] The parallel and perpendicular mP values were also used to calculate total fluorescence intensity (TFI) determined by the sum of parallel mP + (2 x perpendicular mP). TFI was used to detect fluorescence interference by compounds [1]. […] IC50 values were calculated using the four parameter logistic equation in Prism 6.0 (GraphPad). […] KD values were calculated using the one site or two site binding equations in Prism 6.0 (GraphPad). […]

The target in data set [1] is T2, hMcm10-ID (Homo sapiens, UniProt Q7L590).
T2 construct: hMcm10-ID (residues 237 to 436) were expressed in E. coli strain BL21(DE3); 6xHis (HRV 3C site) (N, cleaved yes); made in house; host or cells: E. coli BL21(DE3)
T2 sequence (Q7L590 237-436): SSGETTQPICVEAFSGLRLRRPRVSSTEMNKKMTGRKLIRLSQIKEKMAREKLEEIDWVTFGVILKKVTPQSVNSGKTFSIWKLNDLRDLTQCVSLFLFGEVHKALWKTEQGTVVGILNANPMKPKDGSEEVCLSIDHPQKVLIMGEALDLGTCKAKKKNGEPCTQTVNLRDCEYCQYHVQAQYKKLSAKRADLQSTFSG
As to the kind of experiment: FP saturation binding of probe to hMcm10-ID. As to conditions: probe 12.5 nM, mean ± SEM, n = 3. The procedure: as §1

The target of a further data set is RPA70AB (Homo sapiens, UniProt P27694 181-422). Kind of data set: fluorescence polarization; FP: 20 mM Tris-HCl, 100 mM NaCl, 5% glycerol, 0.01% Triton, pH 7.5, RT 60 min, 12.5 nM probe (0.1% DMSO in HTS). Particulars: protein: recombinant; label: 5'-6-FAM; single strand.
Another data set concerns the target T3, xMcm10-FL (Xenopus laevis, UniProt Q5EAW4 1-860).
T3 sequence: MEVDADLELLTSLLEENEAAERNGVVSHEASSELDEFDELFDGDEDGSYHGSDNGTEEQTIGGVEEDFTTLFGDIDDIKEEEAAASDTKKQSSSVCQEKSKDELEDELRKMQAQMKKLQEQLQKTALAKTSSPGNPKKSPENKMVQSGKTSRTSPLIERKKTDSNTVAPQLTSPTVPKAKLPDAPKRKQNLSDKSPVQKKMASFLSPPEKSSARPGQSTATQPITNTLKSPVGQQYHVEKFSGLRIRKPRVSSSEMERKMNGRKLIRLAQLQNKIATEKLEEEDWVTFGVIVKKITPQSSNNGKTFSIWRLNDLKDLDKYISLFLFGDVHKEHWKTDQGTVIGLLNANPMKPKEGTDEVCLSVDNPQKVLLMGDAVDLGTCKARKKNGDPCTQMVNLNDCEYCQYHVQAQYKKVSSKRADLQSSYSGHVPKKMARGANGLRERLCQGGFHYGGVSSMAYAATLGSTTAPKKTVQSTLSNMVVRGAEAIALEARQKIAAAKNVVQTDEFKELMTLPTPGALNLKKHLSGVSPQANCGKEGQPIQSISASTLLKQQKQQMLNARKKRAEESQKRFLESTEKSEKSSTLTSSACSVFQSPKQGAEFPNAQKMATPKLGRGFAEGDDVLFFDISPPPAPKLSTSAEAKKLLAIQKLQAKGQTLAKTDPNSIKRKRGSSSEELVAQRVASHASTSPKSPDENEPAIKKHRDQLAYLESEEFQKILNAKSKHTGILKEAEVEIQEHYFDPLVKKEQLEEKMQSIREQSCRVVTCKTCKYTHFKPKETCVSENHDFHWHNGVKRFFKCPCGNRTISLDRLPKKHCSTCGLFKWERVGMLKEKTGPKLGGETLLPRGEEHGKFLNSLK
Described as above. Particulars: protein: recombinant; label: 5'-6-FAM; single strand.

Data set [2] concerns the target T4, hMcm10-ID (Homo sapiens, UniProt Q7L590 237-436).
T4 sequence: T2 sequence (Q7L590 237-436)
The data set is described as above. Particulars: protein: recombinant; label: 5'-6-FAM; single strand.

The target of the next data set is T5, xMcm10-ID (Xenopus laevis, UniProt Q5EAW4 229-427).
T5 sequence: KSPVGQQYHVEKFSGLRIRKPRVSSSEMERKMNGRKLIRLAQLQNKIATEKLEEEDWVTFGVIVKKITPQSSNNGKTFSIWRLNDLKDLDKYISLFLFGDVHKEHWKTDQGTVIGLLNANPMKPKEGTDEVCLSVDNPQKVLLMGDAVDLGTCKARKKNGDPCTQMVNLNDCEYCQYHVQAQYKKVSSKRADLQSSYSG
The data set is described as above. As to conditions: protein: recombinant; label: 5'-6-FAM; single strand.

T1 sequence (P27694 181-422): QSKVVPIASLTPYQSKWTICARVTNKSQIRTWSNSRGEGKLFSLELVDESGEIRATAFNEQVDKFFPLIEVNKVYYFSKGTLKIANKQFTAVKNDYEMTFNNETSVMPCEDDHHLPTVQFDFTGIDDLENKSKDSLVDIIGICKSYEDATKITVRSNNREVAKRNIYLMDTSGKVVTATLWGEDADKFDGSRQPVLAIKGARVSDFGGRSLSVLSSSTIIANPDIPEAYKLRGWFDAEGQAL
Sequence of RPA70AB (P27694 181-422): as above

“5′-6-FAM-ATGGTAGGCA (DNA, 5' {FAM}, backbone and methylation of C not given here) [5’-6-FAM 10-mer ssDNA, 5′-6-carboxyfluorescein 10-mer DNA FP probe]” yielded a Kd in the data set with human RPA70AB of 0.4 µM. In addition, the “KD of FP probe for hMcm10-ID” value with hMcm10-ID [1] is “low micromolar affinity”.
With ATGGTAGGCA (ssDNA) [5'-6FAM 10-mer], the Kd came out at 0.37 µM with RPA70AB, 1.1 µM with xMcm10-FL, 2.29 µM with hMcm10-ID [2] and 1.3 µM with xMcm10-ID.
